Square brackets hold non-standard residues; d marks the D form. Ends that are not written are not given here. * marks the point of attachment. 6FAM = O=C1OC2(c3ccc(O)cc3Oc3cc(O)ccc32)c2cc(C(=O)*)ccc21
B1: TL28 (peptide)
peptide: TTSLQMRLYYPP

Assays:
[1] = test system: inducible N2aTau^4RDΔK280 cells; experiment: Penetration of FAM-labeled peptides into cells (confocal microscopy); type: cell-based; design: key to Cell penetration: membrane, 2 hours incubation / Cell penetration: membrane, 4 days incubation / Cell penetration: cytosol, 4 days incubation / Cell penetration: cytosol, 2 hours incubation / Cell penetration: nuclei, 4 days incubation / Cell penetration: nuclei, 2 hours incubation: +: Cell compartments where fluorescence of the label was detected are summarized here
Description: The peptides were obtained with a 6-Carboxyfluorescein (FAM) label, linked via a C-terminal lysine, to assay their ability to enter N2a cells expressing a variant of tau protein (construct tau^4RDΔK280, derived from the 4-repeat domain) in a regulatable fashion. The cells were incubated in the presence of the peptides for two hours (short term uptake) and four days (long term uptake and stability) at concentrations of 60 μM. After incubation the cells were fixed on glass cover slips and monitored by a confocal microscope (Fluoview 1000, Olympus). The localizations of the D-peptides were detected by their FAM-label (excitation: 488 nm, emission: 520 nm). In addition, cell nuclei were stained with TOPRO3 dye (excitation: 633 nm, emission: 660–670 nm). Representative pictures were taken with magnifications of 10-times for overview and 60- and 120-times for more detailed analysis.

[2] = molecular target: T1, tau fibrils (tau-441, 2N4R, heparin induced) (Homo sapiens, UniProt P10636); experiment: ELISA binding of FAM-labeled peptides to tau fibrils; settings: 5 μg/mL tau fibrils coated, 20 μg/mL FAM-labeled peptide, HRP anti-FITC detection
T1 construct: Full lengths tau protein expression and purification; made in house
Description: (§1) Tau protein [tau-441 (2N4R) MW 45.9 kDa], purified as described in the main text, was used to prepare tau fibrils, the preparation of the fibrils was performed according to Barghorn et al. with slight modifications: 30 µM tau protein were incubated for 48 hours with 20 µM heparin MW ≈ 5000 (Fisher scientific, Schwerte, Germany) in phosphate-buffered saline (PBS) pH 7.4 at room temperature.
(§2) Polystyrene 96-well microtiter plates (Greiner Bio-One GmbH, Frickenhausen, Germany) were coated with 100 µL/well of tau monomers or fibrils in concentration of 5 µg/mL respectively, followed by incubation for 1 hour at room temperature. As control, PBS pH 7.4 containing 1 % BSA (IgG free) (Roth, Karlsruhe, Germany) was used instead of tau protein solution. After washing three times with PBS-T (phosphate-buffered saline (pH 7.4) with (0.1 %) Tween 20), and blocking for 1 h at room temperature with 1 % BSA (IgG free) (Roth, Karlsruhe, Germany) in PBS, the plate was washed three times with PBS-T. Then the peptides APT-Lys(FAM)-NH2, KNT-Lys(FAM)-NH2, LPS-Lys(FAM)-NH2, TD28-Lys(FAM)-NH2, TD28rev-Lys(FAM)-NH2 as well as d-TLKIVW-Lys(FAM)-NH2 (JPT Peptide Technologies, Berlin, Germany) were dissolved in PBS-T and added at 100 µL/well in concentration of 20 µg/mL, respectively, the plate was allowed to react for 1 h at room temperature in the dark. Subsequently, the plate was washed 3 times with PBS-T, horseradish peroxidase-conjugated sheep anti-FITC secondary antibodies (Bio-Rad, Muenchen, Germany) were diluted 1:5000 in PBS-T; the antibodies were incubated on the plate 1 h at room temperature. After incubation, the plate was washed 3 times with PBS-T. Subsequently, the substrate solution was prepared as follows: 10 mg of 3,3',5,5'-tetramethylbenzidine (TMB) (Roth, Karlsruhe, Germany) was dissolved in 1 ml dimethylsulfoxide (DMSO), 62 µL from TMB solution were mixed with 9 mL distilled water, 1 mL 1 M sodium acetate buffer (pH 6) and 10 µL 3 % hydrogen peroxide. 100 µL of the prepared substrate solution were transferred to the according wells. Finally, the reaction was stopped with 100 µL/well of 20 % H2SO4, and the plate was read at 450 nm (Multiskan GO, Thermo scientific, Germany).

[3] = molecular target: T2, tau monomers (tau-441, 2N4R) (Homo sapiens, UniProt P10636); experiment: ELISA binding of FAM-labeled peptides to tau monomers; settings: 20 μg/mL FAM-labeled peptide; for Binding to tau monomers (ELISA, in words): 5 μg/mL tau monomers coated, HRP anti-FITC detection; for ELISA signal, ranking among peptides: tau monomers and fibrils
T2 construct: Full lengths tau protein expression and purification; made in house
Description: as §1, §2

tau (Homo sapiens) = settings: cited from earlier work
[4] = molecular target: tau^3RD (three repeat domain construct of tau protein, K19) (human)
[5] = 60 μM FAM labeled peptide, N2aTau^4RDΔK280 cells, fixed cells, confocal microscope, FAM fluorescence
[6] = 60 μM FAM labeled peptide, N2aTau^4RDΔK280 cells, fixed cells, confocal microscope, FAM fluorescence, nuclei stained with TOPRO3

T1 sequence (P10636 1-441 isoform P10636-8): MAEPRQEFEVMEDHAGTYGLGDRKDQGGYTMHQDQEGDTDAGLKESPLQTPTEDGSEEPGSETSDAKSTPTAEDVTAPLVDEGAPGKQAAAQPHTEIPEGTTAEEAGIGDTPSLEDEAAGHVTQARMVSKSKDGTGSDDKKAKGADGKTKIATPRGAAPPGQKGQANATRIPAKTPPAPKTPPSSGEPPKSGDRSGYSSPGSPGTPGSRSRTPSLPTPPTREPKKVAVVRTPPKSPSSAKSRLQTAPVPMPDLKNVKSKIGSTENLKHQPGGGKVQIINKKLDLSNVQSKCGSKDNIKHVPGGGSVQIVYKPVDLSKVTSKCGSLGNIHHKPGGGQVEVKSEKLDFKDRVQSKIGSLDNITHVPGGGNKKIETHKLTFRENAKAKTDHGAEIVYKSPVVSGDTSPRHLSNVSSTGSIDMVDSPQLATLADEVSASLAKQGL
T2 sequence (P10636 1-441 isoform P10636-8): as above
Chain of tau^3RD (three repeat domain construct of tau protein, K19) (human) (P10636 other isoform, or with tags, fused parts or gaps): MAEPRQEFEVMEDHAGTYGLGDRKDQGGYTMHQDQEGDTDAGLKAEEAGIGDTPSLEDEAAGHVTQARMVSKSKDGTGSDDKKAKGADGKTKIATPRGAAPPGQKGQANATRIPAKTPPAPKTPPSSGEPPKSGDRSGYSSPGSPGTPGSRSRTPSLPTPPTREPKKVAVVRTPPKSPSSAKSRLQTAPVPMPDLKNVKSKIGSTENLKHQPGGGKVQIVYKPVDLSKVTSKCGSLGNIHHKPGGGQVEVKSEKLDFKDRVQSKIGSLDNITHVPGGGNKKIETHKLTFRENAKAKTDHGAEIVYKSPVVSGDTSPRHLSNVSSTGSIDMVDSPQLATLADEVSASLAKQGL

| Molecule | Cell penetration: cytosol, 4 days incubation [1, 5] | Cell penetration: membrane, 2 hours incubation [1, 5] | Cell penetration: membrane, 4 days incubation [1, 5] | Cell penetration, overall judgement (in words) ([1]; 60 μM FAM-labeled peptide, N2a cells, up to 4 days) | Binding to tau fibrils (ELISA, in words) [2] | Binding to tau monomers (ELISA, in words) [3] | Kd (tau (Homo sapiens)) [µM] | Cell penetration: cytosol, 2 hours incubation [1, 5] | ELISA signal, ranking among peptides [3] | Cell penetration: nuclei, 4 days incubation [1, 6] | Cell penetration: nuclei, 2 hours incubation [1, 6] | half maximal effect concentration, inhibition of tau^3RD (K19) fibril formation (K19 with K19), ThS fluorescence in vitro [4] [µM] |
| --- | --- | --- | --- | --- | --- | --- | --- | --- | --- | --- | --- | --- |
| APT-Lys(FAM)-NH2: APT with 6-Carboxyfluorescein (FAM) label linked via a C-terminal lysine ([dA][dP][dT][dL][dL][dR][dL][dH][dS][dL]G[dA]K(6FAM)-NH2; N-terminus assumed; SMILES CC(C)C[C@@H](NC(=O)[C@@H](CO)NC(=O)[C@@H](Cc1c[nH]cn1)NC(=O)[C@@H](CC(C)C)NC(=O)[C@@H](CCCNC(=N)N)NC(=O)[C@@H](CC(C)C)NC(=O)[C@@H](CC(C)C)NC(=O)[C@H](NC(=O)[C@H]1CCCN1C(=O)[C@@H](C)N)[C@H](C)O)C(=O)NCC(=O)N[C@H](C)C(=O)N[C@@H](CCCCNC(=O)c1ccc2c(c1)C1(OC2=O)c2ccc(O)cc2Oc2cc(O)ccc21)C(N)=O) | + | + | + | worst cell penetration properties | binding could be demonstrated | binding could be demonstrated | – | – | – | – | – | – |
| D-peptide D-TLKIVW | – | – | – | – | – | – | 2 | – | – | – | – | – |
| KNT-Lys(FAM)-NH2: KNT with 6-Carboxyfluorescein (FAM) label linked via a C-terminal lysine ([dK][dN][dT][dP][dQ][dH][dR][dK][dL][dR][dL][dS]K(6FAM)-NH2; N-terminus assumed; SMILES CC(C)C[C@@H](NC(=O)[C@@H](CCCNC(=N)N)NC(=O)[C@@H](CC(C)C)NC(=O)[C@@H](CCCCN)NC(=O)[C@@H](CCCNC(=N)N)NC(=O)[C@@H](Cc1c[nH]cn1)NC(=O)[C@@H](CCC(N)=O)NC(=O)[C@H]1CCCN1C(=O)[C@H](NC(=O)[C@@H](CC(N)=O)NC(=O)[C@H](N)CCCCN)[C@H](C)O)C(=O)N[C@H](CO)C(=O)N[C@@H](CCCCNC(=O)c1ccc2c(c1)C1(OC2=O)c2ccc(O)cc2Oc2cc(O)ccc21)C(N)=O) | + | + | + | – | binding could be demonstrated | binding could be demonstrated | – | + | highest | – | – | – |
| TD28-Lys(FAM)-NH2: TD28 with 6-Carboxyfluorescein (FAM) label linked via a C-terminal lysine ([dT][dT][dS][dL][dQ][dM][dR][dL][dY][dY][dP][dP]K(6FAM)-NH2; N-terminus assumed; SMILES CSCC[C@@H](NC(=O)[C@@H](CCC(N)=O)NC(=O)[C@@H](CC(C)C)NC(=O)[C@@H](CO)NC(=O)[C@H](NC(=O)[C@H](N)[C@H](C)O)[C@H](C)O)C(=O)N[C@H](CCCNC(=N)N)C(=O)N[C@H](CC(C)C)C(=O)N[C@H](Cc1ccc(O)cc1)C(=O)N[C@H](Cc1ccc(O)cc1)C(=O)N1CCC[C@@H]1C(=O)N1CCC[C@@H]1C(=O)N[C@@H](CCCCNC(=O)c1ccc2c(c1)C1(OC2=O)c2ccc(O)cc2Oc2cc(O)ccc21)C(N)=O) | + | + | + | – | binding could be demonstrated | binding could be demonstrated | – | + | highest | + | – | – |
| TD28rev-Lys(FAM)-NH2: TD28rev with 6-Carboxyfluorescein (FAM) label linked via a C-terminal lysine ([dP][dP][dY][dY][dL][dR][dM][dQ][dL][dS][dT][dT]K(6FAM)-NH2; N-terminus assumed; SMILES CSCC[C@@H](NC(=O)[C@@H](CCCNC(=N)N)NC(=O)[C@@H](CC(C)C)NC(=O)[C@@H](Cc1ccc(O)cc1)NC(=O)[C@@H](Cc1ccc(O)cc1)NC(=O)[C@H]1CCCN1C(=O)[C@H]1CCCN1)C(=O)N[C@H](CCC(N)=O)C(=O)N[C@H](CC(C)C)C(=O)N[C@H](CO)C(=O)N[C@@H](C(=O)N[C@@H](C(=O)N[C@@H](CCCCNC(=O)c1ccc2c(c1)C1(OC2=O)c2ccc(O)cc2Oc2cc(O)ccc21)C(N)=O)[C@H](C)O)[C@H](C)O) | + | + | + | – | binding could be demonstrated | binding could be demonstrated | – | + | – | + | + | – |
| B1 | – | – | – | – | – | – | – | – | – | – | – | > 200 |

Reference: publication PMC5179029, “Selection and Characterization of Tau Binding ᴅ-Enantiomeric Peptides with Potential for Therapy of Alzheimer Disease” (PLoS ONE, 2016)
